According to patent US20250152742A1, “COMPOSITIONS AND METHODS FOR NEUROLOGICAL DISEASES” (Trames Bio, Inc., priority 2022, published 2025):
Changes are numbered by the printed parent chain. Numbers in names are those of the source.

Test system: engineered chimeric receptor SEQ ID NO: 33 and its mutants (human α7-nAChR ligand binding domain / human GlyRα1 ion pore domain) in Lenti-X 293T cells
Test: YFP fluorescence quenching anion reporter plate reader assay (percent quench, EC50)
Format: cell-based
Details: for YFP fluorescence quenching using CNL001 (percent quench): receptor named in row; for YFP fluorescence quenching using Varenicline, 3 nM var: ligand Varenicline 3 nM; for YFP fluorescence quenching using Varenicline, 30 nM var: ligand Varenicline 30 nM; for YFP fluorescence quenching using Varenicline, 300 nM var: ligand Varenicline 300 nM; for YFP fluorescence quenching using Varenicline, 500 nM var: ligand Varenicline 500 nM; for YFP fluorescence quenching using Varenicline, 1 uM var: ligand Varenicline 1 uM
In short: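 Percent quench compares mean YFP signal over the final 10 s with the 15 s baseline before ligand, added in iodide-containing extracellular solution (pH 7.2). Cells were LX293T carrying a YFP anion reporter, transiently transfected with the channel construct; plates were preincubated 30 min at 37 °C.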

[1] = 1 nM CNL001, first column so headed
[2] = 1 nM CNL001, second column so headed
[3] = 10 nM CNL001, first column so headed
[4] = 10 nM CNL001, second column so headed
[5] = 50 nM CNL001, first column so headed
[6] = 50 nM CNL001, second column so headed
[7] = 100 nM CNL001, first column so headed
[8] = 100 nM CNL001, second column so headed
[9] = 1 uM CNL001, first column so headed
[10] = 1 uM CNL001, second column so headed

B1: CODA1157: engineered receptor: Q139E, S172D in SEQ ID NO: 33 (protein)
chain: MRCSPGGVWLALAASLLHVSLQGEFQRKLYKELVKNYNPLERPVANDSQPLTVYFSLSLLQIMDVDEKNQVLTTNIWLQMSWTDHYLQWNVSEYPGVKTVRFPDGQIWKPDILLYNSADERFDATFHTNVLVNSSGHCEYLPPGIFKSSCPMDLKNFPMDVQTCKLKFGSWDYGGWSLDLQMQEADISGYIPNGEWDLVGIPGKRSERFYECCKEPYPDVTFTVTMRRRMGYYLIQMYIPSLLIVILSWISFWINMDAAPARVGLGITTVLTMTTQSSGSRASLPKVSYVKAIDIWMAVCLLFVFSALLEYAAVNFVSRQHKELLRFRRKRRHHKSPMLNLFQEDEAGEGRFNFSAYGMGPACLQAKDGISVKGANNSNTTNPPPAPSKSPEEMRKLFIQRAKKIDKISRIGFPMAFLIFNMFYWIIYKIVRREDVHNQ
modifications: synthetic sequence of chimeric LGIC
- YFP fluorescence quenching using CNL001 (percent quench) [1]: 68.362%
- YFP fluorescence quenching using CNL001 (percent quench) [2]: 69.495%
- YFP fluorescence quenching using CNL001 (percent quench) [3]: 75.078%
- YFP fluorescence quenching using CNL001 (percent quench) [4]: 74.193%
- YFP fluorescence quenching using CNL001 (percent quench) [5]: 77.481%
- YFP fluorescence quenching using CNL001 (percent quench) [6]: 77.205%
- YFP fluorescence quenching using ABT-126 (percent quench) (50 nM abt (ABT-126)): −26.77%
- YFP fluorescence quenching using CNL001 (percent quench) [7]: 77%
- YFP fluorescence quenching using CNL001 (percent quench) [8]: 77.042%
- YFP fluorescence quenching (percent quench) (100 nM CNL002): 80.62%
- YFP fluorescence quenching using ABT-126 (percent quench) (100 nM abt (ABT-126)): −24.64%
- YFP fluorescence quenching using ABT-126 (percent quench) (300 nM abt (ABT-126)): −10.64%
- YFP fluorescence quenching using CNL001 (percent quench) [9]: 78.2%
- YFP fluorescence quenching using CNL001 (percent quench) [10]: 76.244%
- YFP fluorescence quenching (percent quench) (1 uM CNL002): 81.32%
- YFP fluorescence quenching using ABT-126 (percent quench) (1 uM abt (ABT-126)): 19.57%
- YFP fluorescence quenching using ABT-126 (percent quench) (10 uM abt (ABT-126)): 55.64%
- YFP fluorescence quenching (percent quench) (10 uM ach (acetylcholine)): −36.89%
- YFP fluorescence quenching (percent quench) (30 uM ach (acetylcholine)): −37.78%
- YFP fluorescence quenching (percent quench) (100 uM ach (acetylcholine)): −25.67%
- YFP fluorescence quenching (percent quench) (300 uM ach (acetylcholine)): −18.94%
- YFP fluorescence quenching (percent quench) (1 mM ach (acetylcholine)): 16.38%
- YFP fluorescence quenching (percent quench) (3 mM ach (acetylcholine)): 45.71%
- YFP fluorescence quenching using Varenicline, 3 nM var (first column): −0.225
- YFP fluorescence quenching using Varenicline, 3 nM var (second column): −1.954
- YFP fluorescence quenching using Varenicline, 30 nM var (first column): 1.269
- YFP fluorescence quenching using Varenicline, 30 nM var (second column): 5.972
- YFP fluorescence quenching using Varenicline, 300 nM var (first column): 6.84
- YFP fluorescence quenching using Varenicline, 300 nM var (second column): 5.943
- YFP fluorescence quenching using Varenicline, 500 nM var (first column): 8.717
- YFP fluorescence quenching using Varenicline, 500 nM var (second column): 6.41
- YFP fluorescence quenching using Varenicline, 1 uM var (first column): 5.635
- YFP fluorescence quenching using Varenicline, 1 uM var (second column): 7.068

B2: CODA1173: engineered receptor: S172D, Y210W in SEQ ID NO: 33 (protein)
chain: B1 chain with E139Q, Y210W
modifications: synthetic sequence of chimeric LGIC
- YFP fluorescence quenching using CNL001 (percent quench) [1]: 16.321%
- YFP fluorescence quenching using CNL001 (percent quench) [2]: 30.264%
- YFP fluorescence quenching using CNL001 (percent quench) [3]: 61.978%
- YFP fluorescence quenching using CNL001 (percent quench) [4]: 65.343%
- YFP fluorescence quenching using CNL001 (percent quench) [5]: 73.006%
- YFP fluorescence quenching using CNL001 (percent quench) [6]: 74.903%
- YFP fluorescence quenching using ABT-126 (percent quench) (50 nM abt (ABT-126)): 5.15%
- YFP fluorescence quenching using CNL001 (percent quench) [7]: 76%
- YFP fluorescence quenching using CNL001 (percent quench) [8]: 76.759%
- YFP fluorescence quenching (percent quench) (100 nM CNL002): 70.15%
- YFP fluorescence quenching using ABT-126 (percent quench) (100 nM abt (ABT-126)): 25.08%
- YFP fluorescence quenching using ABT-126 (percent quench) (300 nM abt (ABT-126)): 66.86%
- YFP fluorescence quenching using CNL001 (percent quench) [9]: 76.928%
- YFP fluorescence quenching using CNL001 (percent quench) [10]: 76.619%
- YFP fluorescence quenching (percent quench) (1 uM CNL002): 77.33%
- YFP fluorescence quenching using ABT-126 (percent quench) (1 uM abt (ABT-126)): 66.94%
- YFP fluorescence quenching using ABT-126 (percent quench) (10 uM abt (ABT-126)): 78.67%
- YFP fluorescence quenching (percent quench) (1 mM ach (acetylcholine)): −6.12%
- YFP fluorescence quenching (percent quench) (3 mM ach (acetylcholine)): 11.31%
- YFP fluorescence quenching using Varenicline, 3 nM var (first column): 9.211
- YFP fluorescence quenching using Varenicline, 3 nM var (second column): 7.193
- YFP fluorescence quenching using Varenicline, 30 nM var (first column): 7.821
- YFP fluorescence quenching using Varenicline, 30 nM var (second column): 9.078
- YFP fluorescence quenching using Varenicline, 300 nM var (first column): 6.933
- YFP fluorescence quenching using Varenicline, 300 nM var (second column): 8.36
- YFP fluorescence quenching using Varenicline, 500 nM var (first column): 5.501
- YFP fluorescence quenching using Varenicline, 500 nM var (second column): 7.04
- YFP fluorescence quenching using Varenicline, 1 uM var (first column): 7.174
- YFP fluorescence quenching using Varenicline, 1 uM var (second column): 5.185

B3: CODA75: non-responding chimeric engineered receptor used as the negative control (protein)
chain: MRCSPGGVWLALAASLLHVSLQGEFQRKLYKELVKNYNPLERPVANDSQPLTVYFSLSLLQIMDVDEKNQVLTTNIWLQMSWTDHYLQWNVSEYPGVKTVRFPDGQIWKPDILLYNSADERFDATFHTNVLVNSSGHCQYLPPGIFKSSCYIDVRWFPFDVQHCKLKFGSWSYGGWSLDLQMQEADISGYIPNGEWDLVGIPGKRSERFYECCKEPYPDVTFTVTMRRRTGYYLIQMYIPSLLIVILSWISFWINMDAAPARVGLGITTVLTMTTQSSGSEIMPATSDSVPLIAQAIDIWMAVCLLFVFSALLEYAAVNFVSRQHKELLRFRRKRRHHKSPMLNLFQEDEAGEGRFNFSAYGMGPACLQAKDGISVKGANNSNTTNPPPAPSKSPEEMRKLFIQRAKKIDKISRIGFPMAFLIFNMFYWIIYKIVRREDVHNQ
modifications: synthetic sequence of chimeric LGIC
notes: non-responding chimeric engineered receptor used as the negative control
- YFP fluorescence quenching using CNL001 (percent quench) [1]: −8.496%
- YFP fluorescence quenching using CNL001 (percent quench) [2]: −2.266%
- YFP fluorescence quenching using TC-5619/Bradanicline (percent quench) (1 nM brd (TC-5619/Bradanicline)): −13.39%
- YFP fluorescence quenching using TC-5619/Bradanicline (percent quench) (3 nM brd (TC-5619/Bradanicline)): −15.78%
- YFP fluorescence quenching using CNL001 (percent quench) [3]: 1.816%
- YFP fluorescence quenching using CNL001 (percent quench) [4]: −4.649%
- YFP fluorescence quenching using TC-5619/Bradanicline (percent quench) (10 nM brd (TC-5619/Bradanicline)): −13.47%
- YFP fluorescence quenching using TC-5619/Bradanicline (percent quench) (30 nM brd (TC-5619/Bradanicline)): −16.41%
- YFP fluorescence quenching using CNL001 (percent quench) [5]: −5.922%
- YFP fluorescence quenching using CNL001 (percent quench) [6]: −5.597%
- YFP fluorescence quenching using ABT-126 (percent quench) (50 nM abt (ABT-126)): −17.07%
- YFP fluorescence quenching using CNL001 (percent quench) [7]: −8.159%
- YFP fluorescence quenching using CNL001 (percent quench) [8]: −5.058%
- YFP fluorescence quenching (percent quench) (100 nM CNL002): −7.94%
- YFP fluorescence quenching using ABT-126 (percent quench) (100 nM abt (ABT-126)): −16.76%
- YFP fluorescence quenching using AZD-0328 (percent quench) (100 nM azd0328): −8.83%
- YFP fluorescence quenching using ABT-126 (percent quench) (300 nM abt (ABT-126)): −16.76%
- YFP fluorescence quenching using AZD-0328 (percent quench) (300 nM azd0328): −11.15%
- YFP fluorescence quenching using TC-5619/Bradanicline (percent quench) (300 nM brd (TC-5619/Bradanicline)): −17.56%
- YFP fluorescence quenching using ABT-126 (percent quench) (500 nM abt (ABT-126)): −14.68%
- YFP fluorescence quenching using CNL001 (percent quench) [9]: −4.272%
- YFP fluorescence quenching using CNL001 (percent quench) [10]: −1.281%
- YFP fluorescence quenching (percent quench) (1 uM CNL002): −9.81%
- YFP fluorescence quenching using ABT-126 (percent quench) (1 uM abt (ABT-126)): −16%
- YFP fluorescence quenching using ABT-126 (percent quench) (3 uM abt (ABT-126)): −14.11%
- YFP fluorescence quenching using ABT-126 (percent quench) (10 uM abt (ABT-126)): −13.98%
- YFP fluorescence quenching (percent quench) (10 uM ach (acetylcholine)): −12.88%
- YFP fluorescence quenching (percent quench) (30 uM CNL002): −15.27%
- YFP fluorescence quenching using ABT-126 (percent quench) (30 uM abt (ABT-126)): −21.05%
- YFP fluorescence quenching (percent quench) (30 uM ach (acetylcholine)): −18.67%
- YFP fluorescence quenching using AZD-0328 (percent quench) (30 uM azd0328): −11.92%
- YFP fluorescence quenching using ABT-126 (percent quench) (50 uM abt (ABT-126)): −21.35%
- YFP fluorescence quenching (percent quench) (50 uM ach (acetylcholine)): −0.29%
- YFP fluorescence quenching using ABT-126 (percent quench) (100 uM abt (ABT-126)): −24.12%
- YFP fluorescence quenching (percent quench) (100 uM ach (acetylcholine)): −14.46%
- YFP fluorescence quenching (percent quench) (300 uM ach (acetylcholine)): −16.31%
- YFP fluorescence quenching (percent quench) (500 uM ach (acetylcholine)): −17.41%
- YFP fluorescence quenching (percent quench) (1 mM ach (acetylcholine)): −16.46%
- YFP fluorescence quenching (percent quench) (3 mM ach (acetylcholine)): −12.38%
- YFP fluorescence quenching (percent quench) (5 mM ach (acetylcholine)): −20.88%
- YFP fluorescence quenching (percent quench) (10 mM ach (acetylcholine)): −8.69%
- YFP fluorescence quenching using Facinicline, 30 nM fac (ligand Facinicline 30 nM): −11.68
- YFP fluorescence quenching using Facinicline, 100 nM fac (ligand Facinicline 100 nM): 4.35
- YFP fluorescence quenching using Facinicline, 300 nM fac (ligand Facinicline 300 nM): −10.55
- YFP fluorescence quenching using Facinicline, 30 uM fac (ligand Facinicline 30 uM): −5.25
- YFP fluorescence quenching using TC-6987, 1 uM tc6987 (ligand TC-6987 1 uM): −11.79
- YFP fluorescence quenching using TC-6987, 10 uM tc6987 (ligand TC-6987 10 uM): −14.31
- YFP fluorescence quenching using TC-6987, 500 uM tc6987 (ligand TC-6987 500 uM): −19.65
- YFP fluorescence quenching using Varenicline, 3 nM var (first column): 4.161
- YFP fluorescence quenching using Varenicline, 3 nM var (second column): −6.216
- YFP fluorescence quenching using Varenicline, 30 nM var (first column): −5.173
- YFP fluorescence quenching using Varenicline, 30 nM var (second column): −6.593
- YFP fluorescence quenching using Varenicline, 300 nM var (first column): −5.733
- YFP fluorescence quenching using Varenicline, 300 nM var (second column): −7.312
- YFP fluorescence quenching using Varenicline, 500 nM var (first column): −10.35
- YFP fluorescence quenching using Varenicline, 500 nM var (second column): −7.586
- YFP fluorescence quenching using Varenicline, 1 uM var (first column): −5.637
- YFP fluorescence quenching using Varenicline, 1 uM var (second column): −3.757
